Results reported in patent US6132722A, “Recombinant antibody-enzyme fusion proteins” (Bristol-Myers Squibb Company, priority 1998, dated 2000).

Columns and labels:
p97 antigen = target: T1, p97 antigen (Homo sapiens, UniProt P08582); assay: Surface plasmon resonance binding to immobilized p97 antigen; settings: p97 immobilized on gold surface
T1 sequence (P08582 20-738): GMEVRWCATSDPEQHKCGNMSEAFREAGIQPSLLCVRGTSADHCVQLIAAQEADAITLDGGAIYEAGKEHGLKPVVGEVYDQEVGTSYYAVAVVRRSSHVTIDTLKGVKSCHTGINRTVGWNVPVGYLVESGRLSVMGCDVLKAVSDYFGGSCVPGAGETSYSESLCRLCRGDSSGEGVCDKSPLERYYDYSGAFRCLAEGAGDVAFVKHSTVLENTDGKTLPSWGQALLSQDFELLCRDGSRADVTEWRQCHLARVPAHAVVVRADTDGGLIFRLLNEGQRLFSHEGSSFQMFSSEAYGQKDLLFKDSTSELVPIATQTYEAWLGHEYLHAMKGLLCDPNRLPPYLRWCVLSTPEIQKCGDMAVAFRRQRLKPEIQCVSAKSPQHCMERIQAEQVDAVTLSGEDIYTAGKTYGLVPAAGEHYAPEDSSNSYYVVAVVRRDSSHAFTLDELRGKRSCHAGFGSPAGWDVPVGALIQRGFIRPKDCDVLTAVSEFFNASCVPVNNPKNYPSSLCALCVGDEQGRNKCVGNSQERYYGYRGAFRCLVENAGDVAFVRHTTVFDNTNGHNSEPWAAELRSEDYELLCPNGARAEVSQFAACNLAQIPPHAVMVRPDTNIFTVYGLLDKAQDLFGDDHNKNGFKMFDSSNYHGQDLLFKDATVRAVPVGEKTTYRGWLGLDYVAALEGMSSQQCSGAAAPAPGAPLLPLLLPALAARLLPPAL
Procedure: The binding characteristics of the sFv portion of the fusion protein were determined using a fluorescent activated cell sorting competition assay in which fusion protein and FITC-modified whole L49 competed for binding to cell-surface antigens on SK-MEL 28 melanoma cells. […] More detailed information about binding was obtained using surface plasmon resonance, which allowed the measurement of the on and off rates of L49-sFv-bL binding to the p97 antigen immobilized on a gold surface (Table 1).

[1] = Clearance of conjugate from the blood of nude mice; type: in vivo
Procedure: FIGS. 9A and 9B depict pharmacokinetics of L49-sFv-bL in nude mice (3 animals/group). L49-sFv-bL was injected intravenously, tissues were removed and extracted at the indicated times, and the β-lactamase activity was determined using nitrocefin as a substrate. FIG. 9A depicts clearance of L49-sFv-bL from the blood. Injected dose was 4 mg/kg. FIG. 9B depicts L49-sFv-bL levels in subcutaneous 3677 melanoma tumors and in normal tissues. Injected dose was 1 mg/kg.
(§1) Conjugate Localization. Subcutaneous 3677 melanoma tumors were established in female athymic nu/nu mice (8-12 weeks old, Harlan Sprague-Dawley, Indianapolis, Ind.) by transplanting tumors that had been previously passaged as previously described (Kerr et al., Cancer Res., 55:3558-3563 (1995)). Tumor bearing mice were injected i.v. with L49-sFv-bL (1 or 4 mg mAb component/kg) or with L49-Fab'-bL (1.8 mg mAb component/kg). At various time intervals, the mice were anesthetized, bled through the orbital plexus, and sacrificed. Tissues were removed and homogenized in PBS containing 15 μg/ml aprotinin (2 mL/g tissue). To the homogenate was added 50 mM sodium phosphate containing 100 mM NaCl at pH 11.2 (10 ml/g tissue), and the suspension was mixed. After 20 min at room temperature, 3M sodium phosphate at pH 7.0 was added (2 ml/g tissue), and the mixture was mixed and centrifuged.
(§2) Quantification of conjugate concentrations was accomplished using a direct enzyme immunoassay. Polystyrene 96-well microtiter plates were coated with an affinity-purified rabbit polyclonal antisera to wild type E. cloacae bL (1 μg/ml), and were then blocked with specimen diluent (Genetic Systems Corp.). Serially diluted tissue extracts or purified samples (L49-sFv-bL as a standard for the fusion protein samples, L49-Fab'-bL as a standard for the L49-Fab'-bL samples) were added to the wells and allowed to bind for 3 h at room temperature. The plates were washed and developed by the addition of 0.1 ml of nitrocefin (O'Callaghan et al., Antimicrobial Agents and Chemotherapy, 1:283-288 (1972)) at 0.1 mM in PBS containing 1% dimethylformamide. Absorbance measurements were read in an ELISA plate reader using a 490 nm filter with 630 nm as the reference wavelength.
(§3) In Vivo Localization. Biodistribution studies of L49-sFv-bL and L49-Fab'-bL were carried out in nude mice bearing subcutaneous (s.c.) 3677 melanoma tumor xenografts. The conjugates were injected i.v., and at various time points tissues were removed and extracted under alkaline conditions to disrupt antigen-antibody interactions. The samples were then trapped a polyclonal antiserum to bL, and bL activity was measured using nitrocefin as a colorimetric indicator (O'Callaghan et al, Antimicrobial Agents and Chemotherapy, 1:283-288 (1972)).

[2] = Tissue distribution of immunoconjugates in nude mice bearing s.c. 3677 melanoma xenografts; type: in vivo
Procedure: as §1, §2, §3

B1: L49-sFv-bL: recombinant fusion protein: L49 anti-p97 single-chain Fv (VH-218 linker-VL) fused to r2-1 mutant E. cloacae β-lactamase, SEQ ID NO: 20 (protein)
chain: MKYLLPTAAAGLLLLAAQPAMAEVQLQESGPSLVKPSQTLSLTCSVTGDSITSGYWNWIRKFPGNKLEYMGYISDSGITYYNPSLKSRISITRDTSKNQYYLQLNFVTAEDTATYNCARRTLATYYAMDYWGQGTSVTVSSGSTSGSGKPGSGEGSTKGDFVMTQTPLSLPVSLGDQASISCRASQSLVHSNGNTYLHWYLQKPGQSPKLLIYRVSNRFSGVPDRFSGSGSGTDFTLKISRVEAEDLGVYFCSQSTHVPPTFGGGTKLEIKRTPVSEKQLAEVVANTITPLMKAQSVPGMAVAVIYQGKPHYYTFGKADIAANKPVTPQTLFELGSISKTFTGVLGGDAIARGEISLDDAVTRYWPQLTGKQWQGIRMLDLATYTAGGLPLQVPDEVTDNASLLRFYQNWQPQWKPGTTRLYANASIGLFGALAVKPSGMPYEQAMTTRVLKPLKLDHTWINVPKAEEAHYAWGYRDGKAVRVSPGMLDAQAYGVKTNVQDMANWVMANMAPENVADASLKQGIALAQSRYWRIGSMYQGLGWEMLNWPVEANTVVETSFGNVALAPLPVAEVNPPAPPVKASWVHKTGSTGGFGSYVAFIPEKQIGIVMLANTSYPNPARVEAAYHILEALQTSEFE
With B1 the Kd (p97 antigen) was 1 nM, the koff (p97 antigen) was 0.00042 s⁻¹ and the “initial clearance half life t1/2 α” value ([1]; blood, i.v., 4 mg/kg) was 0.3 h. For the same molecule, the “terminal clearance half life t1/2 β” value ([1]; blood, i.v., 4 mg/kg) was 2.5 h, the “clearance from the blood” value ([1]; i.v., nude mice) was “cleared very rapidly” and the “reduction of blood levels” value ([1]; within 24 h of conjugate administration) was 10^4. For the same molecule, the “tumor/tissue ratios Blood” value ([2]; 1 mg/kg i.v., 4 hrs) was 13, the “tumor/tissue ratios Kidney” value ([2]; 1 mg/kg i.v., 4 hrs) was 41 and the “tumor/tissue ratios Liver” value ([2]; 1 mg/kg i.v., 4 hrs) was 52. For the same molecule, the “tumor/tissue ratios Spleen” value ([2]; 1 mg/kg i.v., 4 hrs) was 79, the “tumor/tissue ratios Tumor” value ([2]; 1 mg/kg i.v., 4 hrs) was 1 and the “tumor/tissue ratios Blood” value ([2]; 1 mg/kg i.v., 12 hrs) was 66. For the same molecule, the “tumor/tissue ratios Kidney” value ([2]; 1 mg/kg i.v., 12 hrs) was > 177, the “tumor/tissue ratios Liver” value ([2]; 1 mg/kg i.v., 12 hrs) was > 177 and the “tumor/tissue ratios Spleen” value ([2]; 1 mg/kg i.v., 12 hrs) was > 177. The “tumor/tissue ratios Tumor” value ([2]; 1 mg/kg i.v., 12 hrs) was 1, the “tumor/tissue ratios Blood” value ([2]; 1 mg/kg i.v., 24 hrs) was 105 and the “tumor/tissue ratios Kidney” value ([2]; 1 mg/kg i.v., 24 hrs) was > 70. The “tumor/tissue ratios Liver” value ([2]; 1 mg/kg i.v., 24 hrs) was > 70, the “tumor/tissue ratios Spleen” value ([2]; 1 mg/kg i.v., 24 hrs) was > 70 and the “tumor/tissue ratios Tumor” value ([2]; 1 mg/kg i.v., 24 hrs) was 1. For the same molecule, the “tumor/tissue ratios Blood” value ([2]; 4 mg/kg i.v., 12 hrs) was 81, the “tumor/tissue ratios Kidney” value ([2]; 4 mg/kg i.v., 12 hrs) was > 240 and the “tumor/tissue ratios Liver” value ([2]; 4 mg/kg i.v., 12 hrs) was > 240. The “tumor/tissue ratios Spleen” value ([2]; 4 mg/kg i.v., 12 hrs) was > 240, the “tumor/tissue ratios Tumor” value ([2]; 4 mg/kg i.v., 12 hrs) was 1 and the “tumor/tissue ratios Blood” value ([2]; 4 mg/kg i.v., 24 hrs) was 141. The “tumor/tissue ratios Kidney” value ([2]; 4 mg/kg i.v., 24 hrs) was > 290, the “tumor/tissue ratios Liver” value ([2]; 4 mg/kg i.v., 24 hrs) was > 290 and the “tumor/tissue ratios Spleen” value ([2]; 4 mg/kg i.v., 24 hrs) was > 290. For the same molecule, the “tumor/tissue ratios Tumor” value ([2]; 4 mg/kg i.v., 24 hrs) was 1, the “tumor/tissue ratios Blood” value ([2]; 4 mg/kg i.v., 48 hrs) was 150 and the “tumor/tissue ratios Tumor” value ([2]; 4 mg/kg i.v., 48 hrs) was 1. For the same molecule, the “tumor to blood ratios” value ([2]; 4 mg/kg, 24-48 h after the conjugate was administered) was 141-151.
